Biological target: T1, recombinant α catalytic subunit of rabbit protein phosphatase 1 (Ppp1ca) (rabbit, UniProt P62139 1-330)
T1 construct: α catalytic subunit of protein phosphatase 1 (Ppp1ca), rabbit, recombinant; also called PP1A; Protein Phosphatase 1 Catalytic Subunit, α-isoform; source: bought: MilliporeSigma, P7937 (recombinant)
Experiment: pull-down; GST-(N) NCC or GST alone on glutathione-agarose beads with 2–10 μg recombinant phosphatase; 12- to 18-hour incubation in PBS with 0.5 mM TCEP at 4°C; bound protein detected by Western blotting
Conditions: both partners purified

T1 sequence (P62139 whole entry, canonical isoform): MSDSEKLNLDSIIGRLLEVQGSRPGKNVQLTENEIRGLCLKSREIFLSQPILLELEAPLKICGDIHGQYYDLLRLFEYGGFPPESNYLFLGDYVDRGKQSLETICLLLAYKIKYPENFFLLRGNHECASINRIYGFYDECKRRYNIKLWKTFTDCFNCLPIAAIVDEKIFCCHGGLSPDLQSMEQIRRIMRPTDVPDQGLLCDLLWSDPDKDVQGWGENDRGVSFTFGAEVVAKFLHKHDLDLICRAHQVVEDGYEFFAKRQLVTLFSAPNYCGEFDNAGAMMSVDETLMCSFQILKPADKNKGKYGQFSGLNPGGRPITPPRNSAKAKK

B1: GST fusion protein of the cytoplasmic amino terminus of rat NCC (amino acids 1-133) (domain or fragment, UniProt P55018 1-133, looked up)
chain: MAELPVTEMPGDALCSGRFTISTLLGGDEPPPAACDNSQPSHLTHGSTLYLRTFGYNTIDVVPAYEHYANSALPGEPRKVRPTLADLHSFLKQEGSHLHALAFDGRPGHELTDGLVEDETGANSEKSPGEPVR
notes: thiazide-sensitive sodium chloride cotransporter NCC (SLC12A3), rat, NP_062218, cytoplasmic amino terminus, amino acids 1-133; cloned into pGEX4T1; also called GST-NCC-(N); GST-(N) NCC; source: E. coli C43 (DE3), recovered by glutathione chromatography, kept on beads
binding result: binds

Reference: PMC10617769, “Dietary potassium stimulates Ppp1Ca-Ppp1r1a dephosphorylation of kidney NaCl cotransporter and reduces blood pressure” (The Journal of Clinical Investigation, 2023)
